The values that follow come from the supplement of paper PMC7877785.

± gives the uncertainty stated by the source.

The data set can be described thus: self-splicing fitness, log relative to wild type (ln ratio); higher = more splicing; Tetrahymena group I intron in knt gene, E. coli kanamycin selection, DiMSum; sequences stand for … in CUCUCU…GGAGGGAAAAGUUAUCAGGCAUGCACCUGGUAGCUAGUCUUUAAACCAAUAGAUUGCAUCGGUUUAAAAGGCAAGACCGUCAAAUUGCGGGAAAGGGGUCAACAGCCGUUCAGUACCAAGUCUCAGGGGAAACUUUGAGAUGGCCUUGCAAAGGGUAUGGUAAUAAGCUGACGGACAUGGUCCUAACCACGCAGCCAAGUCCUAAGUCAACAGAUCUUCUGUUGAUAUGGAUGCAGUUCACAGACUAAAUGUCGGUCGGGGAAGAUGUAUUCUUCUCAUAAGAUAUAGUCGGACCUCUCCUUAAUGGGAGCUAGCGGAUGAAGUGAUGCAACACUGGAGCCGCUGGGAACUAAUUUGUAUGCGAAAGUAUAUUGAUUAGUUUUGGAGUACUCGUGGUCG
Summed up:
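Fitness was computed with DiMSum as the error-weighted combination of replicate fold changes, kanamycin versus none, each normalised to wild type. The library randomised all eight intron nucleotides of the P1ex region, with the intron placed in the knt kanamycin-resistance gene on pET-22b(+) in E. coli BL21(DE3). Six replicate transformations were grown overnight at 37°C or 30°C on LB agar with or without 25 μg/mL kanamycin, plus 100 μg/mL carbenicillin, 50 μM IPTG and 0.2% rhamnose. Pooled colonies were amplicon-sequenced on an Illumina HiSeq 2500.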

Regarding UAGCAGCAAUAUUACGACGG, the “self-splicing fitness (ln)” value runs as follows: (30 °C) -0.73 ± 0.09; (37 °C) -0.313 ± 0.12.

For the sequence UAGCAGCAAUAUUACGACUU, the “self-splicing fitness (ln)” value by setting is: (30 °C) -0.541 ± 0.098; (37 °C) 0.107 ± 0.11.

For UAGCAGCAAUAUUACGAGCA, the “self-splicing fitness (ln)” value was -1.48 ± 0.13 (30 °C) and 0.249 ± 0.13 (37 °C).

For the sequence UAGCAGCAAUAUUACGAUUU, the “self-splicing fitness (ln)” value is, setting by setting: (30 °C) -2.03 ± 0.11; (37 °C) -0.879 ± 0.12. On the same counts, the results for UAGCAGCAAUAUUACGCAUU are -2.38 ± 0.13 and -1.08 ± 0.11. As to UAGCAGCAAUAUUACGCGCG, the “self-splicing fitness (ln)” value (30 °C) is -1.09 ± 0.17 and the “self-splicing fitness (ln)” value (37 °C) was 0.624 ± 0.17. On the same counts, the results for UAGCAGCAAUAUUACGCGCU are -2.62 ± 0.12 and -1.6 ± 0.12. For the sequence UAGCAGCAAUAUUACGCUAA, the “self-splicing fitness (ln)” value was -2.07 ± 0.26 (30 °C) and -1.73 ± 0.27 (37 °C).

Consider UAGCAGCAAUAUUACGCUAU, for which the “self-splicing fitness (ln)” value reads like this: (30 °C) -3.88 ± 0.23; (37 °C) -3.49 ± 0.37. With UAGCAGCAAUAUUACGCUCU, the “self-splicing fitness (ln)” value is, setting by setting: (30 °C) -1.27 ± 0.087; (37 °C) -1.04 ± 0.088. The matching figures for UAGCAGCAAUAUUACGGCCG: -0.163 ± 0.071 and 0.0112 ± 0.085. On the same counts, the results for UAGCAGCAAUAUUACGUACU are -1.74 ± 0.1 and -0.434 ± 0.1. On the same counts, the results for UAGCAGCAAUAUUACGUAGU are -2.15 ± 0.14 and -2.48 ± 0.31. As to UAGCAGCAAUAUUACGUAUA, the “self-splicing fitness (ln)” value reads like this: (30 °C) -1.89 ± 0.096; (37 °C) -0.924 ± 0.12. In the case of UAGCAGCAAUAUUACGUAUG, the “self-splicing fitness (ln)” value reads like this: (30 °C) -1.13 ± 0.061; (37 °C) -0.563 ± 0.084. Turning to UAGCAGCAAUAUUACGUCAA, the “self-splicing fitness (ln)” value reads like this: (30 °C) -1.79 ± 0.12; (37 °C) -1.21 ± 0.11. On the same counts, the results for UAGCAGCAAUAUUACGUCCG are -0.746 ± 0.055 and 0.357 ± 0.08.

Turning to UAGCAGCAAUAUUACGUUGC, the “self-splicing fitness (ln)” value by setting is: (30 °C) -2.57 ± 0.21; (37 °C) -1.91 ± 0.21.

In the case of UAGGAGCAAUAUUACGACGG, the “self-splicing fitness (ln)” value runs as follows: (30 °C) -2.88 ± 0.13; (37 °C) -0.471 ± 0.12. Take UAGGAGCAAUAUUACGAGUA: the “self-splicing fitness (ln)” value (30 °C) is -2.81 ± 0.24 and the “self-splicing fitness (ln)” value (37 °C) was -1.93 ± 0.22. Turning to UAGGAGCAAUAUUACGCCAA, the “self-splicing fitness (ln)” value runs as follows: (30 °C) -3.23 ± 0.4; (37 °C) -2.13 ± 0.42. Take UAGGAGCAAUAUUACGCCGA: the “self-splicing fitness (ln)” value was -2.76 ± 0.21 (30 °C) and -0.577 ± 0.27 (37 °C). In the case of UAGGAGCAAUAUUACGCGUU, the “self-splicing fitness (ln)” value runs as follows: (30 °C) -4.38 ± 0.24; (37 °C) -1.37 ± 0.14. Turning to UAGGAGCAAUAUUACGCUAC, the “self-splicing fitness (ln)” value (37 °C) was 0.223 ± 0.43.

As for UAGGAGCAAUAUUACGCUUG, the “self-splicing fitness (ln)” value was -1.18 ± 0.32 (30 °C) and 0.65 ± 0.36 (37 °C). With UAGGAGCAAUAUUACGGCGC, the “self-splicing fitness (ln)” value by setting is: (30 °C) -1.76 ± 0.36; (37 °C) -2.54 ± 0.41.

Consider UAGGAGCAAUAUUACGGCGU, for which the “self-splicing fitness (ln)” value by setting is: (30 °C) -3.14 ± 0.24; (37 °C) -1.43 ± 0.28.

Consider UAGGAGCAAUAUUACGGGGU, for which the “self-splicing fitness (ln)” value is -3.84 ± 0.4 (30 °C) and -2.12 ± 0.35 (37 °C). On the same counts, the results for UAGGAGCAAUAUUACGGUCA are -2.65 ± 0.47 and -2.19 ± 0.26. As to UAGGAGCAAUAUUACGGUUU, the “self-splicing fitness (ln)” value was -3.54 ± 0.3 (30 °C) and -3.45 ± 0.39 (37 °C). The matching figures for UAGGAGCAAUAUUACGUAGG: -3.28 ± 0.2 and -1.15 ± 0.18.

Take UAGGAGCAAUAUUACGUCAA: the “self-splicing fitness (ln)” value (37 °C) is -2.27 ± 0.46. For the sequence UAGGAGCAAUAUUACGUCGA, the “self-splicing fitness (ln)” value is -3.16 ± 0.2 (30 °C) and -1.55 ± 0.21 (37 °C). The matching figures for UAGGAGCAAUAUUACGUCUG: -0.473 ± 0.13 and 0.629 ± 0.15.

Consider UAGGAGCAAUAUUACGUGAA, for which the “self-splicing fitness (ln)” value by setting is: (30 °C) -1.66 ± 0.34; (37 °C) -1.93 ± 0.34. Consider UAGGAGCAAUAUUACGUGAC, for which the “self-splicing fitness (ln)” value (30 °C) was -3 ± 0.23.

For UAGGAGCAAUAUUACGUGGC, for the setting “37 °C”, the “self-splicing fitness (ln)” value was -0.624 ± 0.36. The same measure, in the same setting: with UAGGAGCAAUAUUACGUUGG the figure was -1.27 ± 0.28. Consider UAGUAGCAAUAUUACGAAUG, for which the “self-splicing fitness (ln)” value is, setting by setting: (30 °C) -2.77 ± 0.16; (37 °C) -0.412 ± 0.13. Turning to UAGUAGCAAUAUUACGAGGU, the “self-splicing fitness (ln)” value (30 °C) was -2.28 ± 0.36. For UAGUAGCAAUAUUACGAUCU, the “self-splicing fitness (ln)” value runs as follows: (30 °C) -1.22 ± 0.11; (37 °C) -0.472 ± 0.13. Consider UAGUAGCAAUAUUACGCAUC, for which the “self-splicing fitness (ln)” value (30 °C) is -2.64 ± 0.28. As to UAGUAGCAAUAUUACGCGAC, under “37 °C”, the “self-splicing fitness (ln)” value is -1.69 ± 0.29. On to UAGUAGCAAUAUUACGCUCA, for which the “self-splicing fitness (ln)” value by setting is: (30 °C) -0.29 ± 0.13; (37 °C) 0.69 ± 0.15. Turning to UAGUAGCAAUAUUACGGAUU, the “self-splicing fitness (ln)” value is, setting by setting: (30 °C) -4.06 ± 0.47; (37 °C) -0.834 ± 0.18. The matching figures for UAGUAGCAAUAUUACGGCCU: -0.563 ± 0.15 and -0.218 ± 0.24. As to UAGUAGCAAUAUUACGGGUA, the “self-splicing fitness (ln)” value (30 °C) was -1.99 ± 0.12 and the “self-splicing fitness (ln)” value (37 °C) is -0.398 ± 0.097. Regarding UAGUAGCAAUAUUACGGUAA, the “self-splicing fitness (ln)” value (30 °C) is -2.68 ± 0.3 and the “self-splicing fitness (ln)” value (37 °C) was -2.18 ± 0.29. The matching figures for UAGUAGCAAUAUUACGGUGC: -3.13 ± 0.17 and -2.39 ± 0.19. The matching figures for UAGUAGCAAUAUUACGGUGU: -3.57 ± 0.32 and -3.21 ± 0.4. Turning to UAGUAGCAAUAUUACGUAAG, the “self-splicing fitness (ln)” value (30 °C) is -4.17 ± 0.46 and the “self-splicing fitness (ln)” value (37 °C) was -1.11 ± 0.23.

In the case of UAGUAGCAAUAUUACGUAGA, the “self-splicing fitness (ln)” value is, setting by setting: (30 °C) -3.53 ± 0.24; (37 °C) -1.93 ± 0.17.

Consider UAUAAGCAAUAUUACGACUG, for which the “self-splicing fitness (ln)” value runs as follows: (30 °C) 0.143 ± 0.076; (37 °C) 0.22 ± 0.098. The matching figures for UAUAAGCAAUAUUACGAGCG: -0.0858 ± 0.098 and -0.062 ± 0.1. In the case of UAUAAGCAAUAUUACGAGGA, for the setting “30 °C”, the “self-splicing fitness (ln)” value was -2.44 ± 0.42. As to UAUAAGCAAUAUUACGAUCC, where the note is “37 °C”, the “self-splicing fitness (ln)” value was -2.05 ± 0.37. Turning to UAUAAGCAAUAUUACGAUGG, the “self-splicing fitness (ln)” value (30 °C) was -1.62 ± 0.13 and the “self-splicing fitness (ln)” value (37 °C) was -1.48 ± 0.2. The matching figures for UAUAAGCAAUAUUACGCGAU: -3.6 ± 0.21 and -3.37 ± 0.22. In the case of UAUAAGCAAUAUUACGGACU, the “self-splicing fitness (ln)” value is, setting by setting: (30 °C) -2.12 ± 0.11; (37 °C) -0.796 ± 0.11.

Take UAUAAGCAAUAUUACGGAGA: the “self-splicing fitness (ln)” value reads like this: (30 °C) -3.11 ± 0.36; (37 °C) -2.33 ± 0.46. The matching figures for UAUAAGCAAUAUUACGGCCG: 0.336 ± 0.23 and 0.0314 ± 0.26. On the same counts, the results for UAUAAGCAAUAUUACGGCUC are -1.1 ± 0.17 and -0.161 ± 0.2. The matching figures for UAUAAGCAAUAUUACGGCUG: 0.381 ± 0.13 and 0.0603 ± 0.14.

Take UAUAAGCAAUAUUACGGUAC: the “self-splicing fitness (ln)” value by setting is: (30 °C) -3.46 ± 0.3; (37 °C) -2.23 ± 0.29.

In the case of UAUAAGCAAUAUUACGGUCG, the “self-splicing fitness (ln)” value is -0.167 ± 0.097 (30 °C) and -0.128 ± 0.12 (37 °C). On the same counts, the results for UAUAAGCAAUAUUACGGUUC are -3.49 ± 0.37 and -1.05 ± 0.33.

With UAUAAGCAAUAUUACGUAUA, the “self-splicing fitness (ln)” value by setting is: (30 °C) -2.77 ± 0.21; (37 °C) -0.986 ± 0.17. The matching figures for UAUAAGCAAUAUUACGUUCU: -1.03 ± 0.14 and -1.41 ± 0.2. With UAUAAGCAAUAUUACGUUGC, where the note is “30 °C”, the “self-splicing fitness (ln)” value was -3.02 ± 0.3.

For UAUCAGCAAUAUUACGAAGU, the “self-splicing fitness (ln)” value (30 °C) was -2.82 ± 0.28 and the “self-splicing fitness (ln)” value (37 °C) was -0.868 ± 0.29.

Regarding UAUCAGCAAUAUUACGAAUA, the “self-splicing fitness (ln)” value is, setting by setting: (30 °C) -0.934 ± 0.18; (37 °C) -0.486 ± 0.11. On the same counts, the results for UAUCAGCAAUAUUACGACCA are -0.0276 ± 0.12 and 0.439 ± 0.16.

On to UAUCAGCAAUAUUACGACCC, for which the “self-splicing fitness (ln)” value reads like this: (30 °C) -1.87 ± 0.15; (37 °C) -1.71 ± 0.18. On the same counts, the results for UAUCAGCAAUAUUACGAUCU are -0.554 ± 0.1 and -0.0299 ± 0.098. The matching figures for UAUCAGCAAUAUUACGCAAA: -0.36 ± 0.12 and -0.755 ± 0.11. On to UAUCAGCAAUAUUACGCACC, for which the “self-splicing fitness (ln)” value reads like this: (30 °C) -0.885 ± 0.22; (37 °C) 0.3 ± 0.29. The matching figures for UAUCAGCAAUAUUACGCAUA: -0.316 ± 0.11 and 0.0108 ± 0.11. On the same counts, the results for UAUCAGCAAUAUUACGCUAC are -4.2 ± 0.42 and -3.24 ± 0.26.
